Holding throughout (test): PBM
One data set has as its system HESX1 N125S (human). Particulars: Universal PBM, 200 nM protein in PBS, temperature and pH not stated in the material.
The test system of the next data set is HOXD13 S316C (human). The settings on record: contrastQ 0.9698003 (no significant change); Universal PBM, 200 nM protein in PBS; temperature and pH not stated in the material.
The next data set concerns HOXD13 I322L (human). Particulars: Universal PBM, 200 nM protein in PBS, temperature and pH not stated in the material.
In the next data set the test system is NKX2-5 K183E (human). Particulars: Universal PBM, 200 nM protein in PBS, temperature and pH not stated in the material.
The next data set deals with ARX P353R (human). Particulars: Universal PBM, 200 nM protein in PBS; temperature and pH not stated in the material.
The test system of a further data set is ARX L343Q (human). The settings on record: contrastQ 3.05E-194; Universal PBM, 200 nM protein in PBS; temperature and pH not stated in the material.
The subject of a further data set is ARX T333N (human). Particulars: contrastQ 5.30E-28; Universal PBM, 200 nM protein in PBS; temperature and pH not stated in the material.
In a further data set the test system is HESX1 R109Q (human). The settings on record: contrastQ 1.24E-92; Universal PBM, 200 nM protein in PBS; temperature and pH not stated in the material.
For the next data set, the system named is HESX1 E149K (human). The settings on record: contrastQ 9.83E-08; Universal PBM, 200 nM protein in PBS; temperature and pH not stated in the material.
Another data set concerns PROP1 R99Q (human). The settings on record: contrastQ 2.52E-38; Universal PBM, 200 nM protein in PBS; temperature and pH not stated in the material.
The next data set has as its system HESX1 R160C (human). Particulars: contrastQ 1.53E-116; Universal PBM, 200 nM protein in PBS; temperature and pH not stated in the material.
A further data set deals with PROP1 F88S (human). The settings on record: contrastQ 3.19E-277; Universal PBM, 200 nM protein in PBS; temperature and pH not stated in the material.
For a further data set, the system named is HOXD13 T313R (human). Particulars: contrastQ 1.85E-52; Universal PBM, 200 nM protein in PBS; temperature and pH not stated in the material.
For a further data set, the system named is SHOX R173C (human). The settings on record: contrastQ 1.38E-15; Universal PBM, 200 nM protein in PBS; temperature and pH not stated in the material.

PBM 8-mer CAATTAAA: in the data set with HESX1 N125S (human) (contrastQ 0.7783541 (no significant change)), the binding signal (contrast difference vs reference) was -0.277.
Regarding PBM 8-mer TCGTAAAA, the results for the binding signal (contrast difference vs reference) in the data set with HOXD13 S316C (human) and with HOXD13 I322L (human) (contrastQ 3.41E-01 (no significant change)) were 0.128 and 0.259, respectively.
For the substance PBM 8-mer TCATAAAA, the binding signal (contrast difference vs reference) is 0.133 with HOXD13 S316C (human) and -1.15 with HOXD13 I322L (human) (contrastQ 8.96E-16).
For the substance PBM 8-mer GCACTTCA, the binding signal (contrast difference vs reference) in the data set on NKX2-5 K183E (human) (contrastQ 5.13E-38) was -1.27.
With PBM 8-mer GCACTTGA, the binding signal (contrast difference vs reference) in the data set on NKX2-5 K183E (human) (contrastQ 1.87E-56) was -1.44.
On to PBM 8-mer GTTAATTA, for which the binding signal (contrast difference vs reference) with ARX P353R (human) is -2.42; with ARX L343Q (human), -2.29; with ARX T333N (human), -0.803.
For PBM 8-mer CTAATTGA, the binding signal (contrast difference vs reference) is -3.4 in the data set on HESX1 R109Q (human); -0.502 with HESX1 E149K (human); -0.687 in the data set with PROP1 R99Q (human); -0.172 in the data set with HESX1 N125S (human) (contrastQ 0.9069244 (no significant change)); -2.1 with HESX1 R160C (human); -4.12 with PROP1 F88S (human).
Turning to PBM 8-mer CAATAAAA, in the data set on HOXD13 T313R (human), the binding signal (contrast difference vs reference) was -1.23.
For PBM 8-mer ATTATAAT, the binding signal (contrast difference vs reference) with SHOX R173C (human) is -1.91.

The record behind these values is paper PMC11006913.
